Like-named read-outs stand apart in the source and are kept apart here.
Columns and labels:
Assay in all cases: SPR
[1] = target: T1, L7Ae (Archaeoglobus fulgidus, UniProt O29494 1-119)
[2] = target: T2, L7Ae-K (L7-K) (Archaeoglobus fulgidus, UniProt O29494 1-119, K37A)
[3] = target: T1, L7Ae; remark: listed apart in the source
[4] = target: T2, L7Ae-K (L7-K); remark: listed apart in the source

T1 sequence (O29494 whole entry): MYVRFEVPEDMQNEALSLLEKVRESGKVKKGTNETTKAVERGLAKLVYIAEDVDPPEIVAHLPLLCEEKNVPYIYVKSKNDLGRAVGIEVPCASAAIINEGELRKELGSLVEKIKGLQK
T2 sequence (O29494 whole entry K37A): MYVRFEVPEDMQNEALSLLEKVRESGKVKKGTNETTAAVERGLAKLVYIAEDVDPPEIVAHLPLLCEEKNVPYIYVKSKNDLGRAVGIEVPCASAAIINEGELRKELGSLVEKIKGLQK

With GGAUCUGGGGUCUGAACGGUGAUGACCCGGAUCC (structured_RNA) [K-loop] the Kd [1] was 2.2 nM and the Kd [2] was 26 nM.

GGAUCUGGGGCGUGAUCCGAAAGGUGACCCGGAUCC (structured_RNA) [K-turn] showed a Kd [3] of 1.6 nM and a Kd [4] of 15 nM.
